The target in experiment [1] is T1, CoV-NL63 Spike ectodomain (NL63-CoV, UniProt Q6Q1S2 19-1291).
T1 sequence: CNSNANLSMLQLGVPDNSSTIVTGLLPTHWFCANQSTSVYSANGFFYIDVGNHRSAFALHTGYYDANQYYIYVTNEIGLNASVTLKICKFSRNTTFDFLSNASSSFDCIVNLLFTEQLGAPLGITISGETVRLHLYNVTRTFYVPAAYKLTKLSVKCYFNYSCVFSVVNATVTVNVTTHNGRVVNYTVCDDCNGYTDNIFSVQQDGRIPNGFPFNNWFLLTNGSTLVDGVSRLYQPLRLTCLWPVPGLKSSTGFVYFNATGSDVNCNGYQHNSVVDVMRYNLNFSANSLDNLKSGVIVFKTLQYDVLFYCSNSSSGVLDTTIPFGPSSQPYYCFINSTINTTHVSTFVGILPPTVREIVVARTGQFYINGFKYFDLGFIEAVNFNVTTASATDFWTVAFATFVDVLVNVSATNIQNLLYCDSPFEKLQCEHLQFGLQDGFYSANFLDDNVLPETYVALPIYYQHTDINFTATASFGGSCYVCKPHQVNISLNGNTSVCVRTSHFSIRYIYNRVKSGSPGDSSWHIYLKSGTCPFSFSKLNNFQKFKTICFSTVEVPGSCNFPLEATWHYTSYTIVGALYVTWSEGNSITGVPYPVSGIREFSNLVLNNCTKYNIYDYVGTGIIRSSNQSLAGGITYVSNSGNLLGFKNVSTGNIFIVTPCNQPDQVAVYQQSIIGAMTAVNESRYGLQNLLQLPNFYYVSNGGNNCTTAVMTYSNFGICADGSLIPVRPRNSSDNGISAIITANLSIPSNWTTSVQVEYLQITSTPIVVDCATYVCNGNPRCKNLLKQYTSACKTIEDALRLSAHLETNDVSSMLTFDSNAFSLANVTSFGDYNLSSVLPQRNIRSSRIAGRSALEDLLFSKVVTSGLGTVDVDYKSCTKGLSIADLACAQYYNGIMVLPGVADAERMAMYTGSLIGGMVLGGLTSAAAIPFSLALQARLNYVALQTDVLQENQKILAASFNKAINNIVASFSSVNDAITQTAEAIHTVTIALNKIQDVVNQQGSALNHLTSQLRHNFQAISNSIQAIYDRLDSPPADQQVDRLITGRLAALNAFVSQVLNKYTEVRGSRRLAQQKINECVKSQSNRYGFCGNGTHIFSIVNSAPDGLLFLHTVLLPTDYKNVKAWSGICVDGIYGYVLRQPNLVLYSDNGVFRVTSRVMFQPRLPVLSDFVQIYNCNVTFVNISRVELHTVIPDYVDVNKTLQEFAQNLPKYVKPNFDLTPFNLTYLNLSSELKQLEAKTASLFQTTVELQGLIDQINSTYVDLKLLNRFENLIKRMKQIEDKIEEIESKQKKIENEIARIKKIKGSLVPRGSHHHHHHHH
Description: ELISA, coated antigen. Further: test concentration or dose not given here. Background: In an ELISA, binding on a coated surface is turned into a signal by an enzyme label.

Experiment [2] has as its target T2, CoV-HKU1 Spike ectodomain (HKU1-CoV, UniProt Q0ZME7 14-1276).
T2 chain: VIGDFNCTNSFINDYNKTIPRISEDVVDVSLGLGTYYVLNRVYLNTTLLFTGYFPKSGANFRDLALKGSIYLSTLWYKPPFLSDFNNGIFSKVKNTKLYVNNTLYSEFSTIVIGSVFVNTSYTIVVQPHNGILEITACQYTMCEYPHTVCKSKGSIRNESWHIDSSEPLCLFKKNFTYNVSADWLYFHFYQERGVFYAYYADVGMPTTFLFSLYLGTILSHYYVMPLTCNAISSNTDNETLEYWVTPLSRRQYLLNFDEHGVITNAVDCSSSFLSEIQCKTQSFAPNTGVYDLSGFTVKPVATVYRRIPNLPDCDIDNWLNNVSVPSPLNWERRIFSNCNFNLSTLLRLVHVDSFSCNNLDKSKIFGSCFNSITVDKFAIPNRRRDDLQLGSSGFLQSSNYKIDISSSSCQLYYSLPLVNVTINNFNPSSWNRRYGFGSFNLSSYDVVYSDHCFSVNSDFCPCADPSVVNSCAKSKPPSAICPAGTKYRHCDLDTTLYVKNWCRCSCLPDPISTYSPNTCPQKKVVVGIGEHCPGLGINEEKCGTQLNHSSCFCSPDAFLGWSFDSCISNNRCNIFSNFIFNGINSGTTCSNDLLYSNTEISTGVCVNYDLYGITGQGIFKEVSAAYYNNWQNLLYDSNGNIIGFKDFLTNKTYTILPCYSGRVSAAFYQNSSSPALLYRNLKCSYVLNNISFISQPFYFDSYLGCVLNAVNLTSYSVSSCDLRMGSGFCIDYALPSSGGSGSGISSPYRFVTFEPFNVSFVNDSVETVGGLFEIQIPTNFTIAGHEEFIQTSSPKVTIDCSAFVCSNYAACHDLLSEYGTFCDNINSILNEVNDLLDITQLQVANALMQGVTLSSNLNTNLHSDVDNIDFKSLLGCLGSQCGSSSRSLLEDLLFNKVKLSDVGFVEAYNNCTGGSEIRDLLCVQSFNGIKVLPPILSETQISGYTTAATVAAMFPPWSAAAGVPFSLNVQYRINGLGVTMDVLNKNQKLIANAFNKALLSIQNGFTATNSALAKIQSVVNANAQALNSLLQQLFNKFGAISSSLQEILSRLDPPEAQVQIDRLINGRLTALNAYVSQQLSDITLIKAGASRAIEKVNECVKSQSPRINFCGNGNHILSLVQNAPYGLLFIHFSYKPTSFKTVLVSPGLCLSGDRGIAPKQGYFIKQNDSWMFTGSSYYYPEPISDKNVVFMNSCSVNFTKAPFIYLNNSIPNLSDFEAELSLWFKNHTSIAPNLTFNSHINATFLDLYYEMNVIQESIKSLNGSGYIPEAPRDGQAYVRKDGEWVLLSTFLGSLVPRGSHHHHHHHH
The experiment in a line: ELISA, coated spike ectodomain.

Experiment [3] concerns the target T1, CoV-NL63 Spike ectodomain. Description: ELISA, coated spike ectodomain.

The source of these data is patent publication US20240336672A1 (INSTITUT PASTEUR, published 2024).

B1: Cv2.3194 (recombinant human IgG1) (antibody, V domains shown)
VH: EVQLVESGGGLIQPGGSLRLSCAASGITVTSNYMSWVRQAPGKGLEWVSVIYPGGSTFYADSVKGRFTISRDNSKNTLYLQMNSLRAEDTAVYYCARDLVVYGMDVWGQGTTVTVSS
VL: EIVLTQSPGTLSLSPGERATLSCRASQSVSSSYLAWYQQKPGQAPRLLIYGASSRATGIPGRFSGSGSGTDFTLTISRLEPEDFAIYYCQQGVTFGGGTKVEIKR
As for B1, the “ELISA OD” value in experiment [1] came to 0.1 OD. Moreover, the binding result in experiment [2] and in experiment [3] was “no binding” each time.

B2: Cv2.5213 (recombinant human IgG1) (antibody, V domains shown)
VH: EVQLVESGGGLIQPGGSLRLSCAASGFTVSSNYMSWVRQAPGKGLEWVSLIYSGGSTYYADSVKGRFTISRDNSKNTLYLQMNSLRAEDTAVYYCARDLNYYGMDVWGQGATVTVSS
VL: DIQMTQSPSSLSASVGDRVTITCRASQGISSYLAWYQQKPGKAPKLLIYAASTLQSGVPSRFSGSGSGTDFTLTISSLQPEDFATYYCQQLDSYSPFTFGPGTKVDIKR
In the case of B2, the “ELISA OD” value in experiment [1] came to 0.1 OD. Further, the binding result in experiment [2] and in experiment [3] was “no binding” each time.

B3: Cv2.3235 (recombinant human IgG1) (antibody, V domains shown)
VH: EVQLVESGGGLIQPGGSLRLSCAASGFTVSRNYMSWVRQAPGKGLEWVSVIYSGGSTFYADSVKGRFTISRDNSKNTLYLQMNSLRAEDTAVYYCARDGDYYGMDVWGQGTTVTVSS
VL: DIQMTQSPSFLSASVGDRVTITCRASQGISSFLAWYQQKPGKAPKLLIYGASTLQSGVTSRFSGSGSGTEFTLTISSLQPEDFATYYCQRLDSYPPITFGQGTRLEIKR
Regarding B3, the “ELISA OD” value in experiment [1] is 0.2 OD. Further, the binding result in experiment [2] and in experiment [3] was “no binding” throughout.

B4: Cv2.1353 (recombinant human IgG1) (antibody, V domains shown)
VH: EVQLVESGGGLVQPGGSLRLSCAASGVTVSSNYMNWVRQAPGKGLEWVSVIYSGGSTFYADSVKGRFIISRDNSKNTLYLQMNSLKTEDTAVYYCARDLGPMGFDIWGQGTMVTVSS
VL: DIQMTQSPSFLSASVGDRVTITCRASQGISSYLAWYQQKPGKAPKLLIYAASTLQSGVPSRFSGSGSGTEFTLTISSLQPEDFATYYCQQLNSDPPVTFGPGTKVDIKR
Take B4: the “ELISA OD” value in experiment [1] was 0.1 OD. Moreover, the binding result in experiment [2] and in experiment [3] was “no binding” throughout.

B5: Cv2.1169 (recombinant human IgG1) (antibody)
heavy: QVQLVQSGPEVKKPGTSVKVSCKASGFTFTTSAVQWVRQARGQRLEWIGWIVVGSGNTNYAQKFQERVTITRDMSTTTAYMELSSLRSEDTAVYYCAAPYCSGGTCLDGFDIWGQGTMVTVSSASTKGPSVFPLAPSSKSTSGGTAALGCLVKDYFPEPVTVSWNSGALTSGVHTFPAVLQSSGLYSLSSVVTVPSSSLGTQTYICNVNHKPSNTKVDKKVEPKSCDKTHTCPPCPAPELLGGPSVFLFPPKPKDTLMISRTPEVTCVVVDVSHEDPEVKFNWYVDGVEVHNAKTKPREEQYNSTYRVVSVLTVLHQDWLNGKEYKCKVSNKALPAPIEKTISKAKQPREPQVYTLPPSRDELTKNQVSLTCLVKGFYPSDIAVEWESNGQPENNYKTTPPVLDSDGSFFLYSKLTVDKSRWQQGNVFSCSVMHEALHNHYTQKSLSLSPGK
light: not shown
notes: also called Cv2.1169 IgG
As to B5, in experiment [1], the “ELISA OD” value turned out to be 0.1 OD. Besides, the binding result in experiment [2] and in experiment [3] was “no binding” throughout.
